Experiment [1] deals with T1, ALK2 ECD (Homo sapiens), Q04771.
T1 chain: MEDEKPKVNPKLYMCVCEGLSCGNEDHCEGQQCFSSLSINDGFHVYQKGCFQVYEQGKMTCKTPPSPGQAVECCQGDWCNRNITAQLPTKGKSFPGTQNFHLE
Put plainly: BLI. The conditions noted are these: remark: other sources report otherwise.

For experiment [2], the target named is T2, ALK3 ECD (Homo sapiens), P36894.
T2 chain: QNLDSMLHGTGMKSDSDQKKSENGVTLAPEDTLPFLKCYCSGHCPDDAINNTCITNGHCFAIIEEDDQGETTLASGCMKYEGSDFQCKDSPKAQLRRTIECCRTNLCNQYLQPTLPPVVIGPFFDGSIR
As to the kind of experiment: BLI. To be noted: remark: other sources report otherwise.

B1: BMP-7, P18075 (protein)
chain: STGSKQRSQNRSKTPKNQEALRMANVAENSSSDQRQACKKHELYVSFRDLGWQDWIIAPEGYAAYYCEGECAFPLNSYMNATNHAIVQTLVHFINPETVPKPCCAPTQLNAISVLYFDDSSNVILKKYRNMVVRACGCH
For orientation: Kd means the free concentration of one partner at which half of the binding sites on the other are occupied at equilibrium, for simple one-to-one binding. A higher Kd goes with lower affinity. On to B1, for which the Kd worked out at 18.4 nM in experiment [1] and 19 nM in experiment [2].

B2: BMP-9, Q9UK05 (protein)
chain: SAGAGSHCQKTSLRVNFEDIGWDSWIIAPKEYEAYECKGGCFFPLADDVTPTKHAIVQTLVHLKFPTKVGKACCVPTKLSPISVLYKDDMGVPTLKYHYEGMSVAECGCR
In experiment [1], B2 had a Kd of 133 nM.

(Values after publication PMC7614001.)
